Experiment: soluble fraction after stress (log2 fold change); higher = more stays soluble; pooled small domains, quantitative proteomics
Conditions: stress: 50 degC
How it was run: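 Each library was heated to 50°C as a stress step. The libraries, made up of small protein domains, were pooled and analysed at high throughput by quantitative proteomics. The reported value is the base-two logarithm of the fold change in each protein's soluble amount after stress, taken as a measure of aggregation propensity. The higher the value, the more protein stays in solution.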

Sequence	soluble fraction (log2)
HMVNKQERTYTILRDRIHSGSFAPLERLNIDALARELGVSPIPVREALRRLEAEGWVRFTPNVGAVVSP	-0.165
HMARRTPPPTVSELNALLRVAAPHIQRVILLGIYTGARIGPSELFSLKWDDVDLTRGVIGIRL	-0.0306
HMPETAQLTDIQVSRSQAHTGIFSLHYYLTGTDSRGERVRLEISGDDYTRLSGSSSVTVEYYRHTGRIVRY	-1.55
HMLRISLAAARVNAEMTQEDVAREMHVSKNTVVNWEKGKSEPTISQSRELSKLYNMPLEYIFYL	-3.05
HMNEPSSYGYAISVALDRNGLGTVKGGTLYPLLARLEQAAHVETRWEAGDGGPGRKYYTITDSGRS	-0.201
HMESEIYKKIEKSRLLELAFTKSQKGDLTGAYDLYYQAFTKYDVIADNQNRYFEDFISLIRRKQQQD	-0.739
HMTGIQLNDRERAILQHLSDGLTTKAIAERIFLREDTVKWYRKNLLARFEQPIVAALVKWAVLEGLV	0.141
HMNTELFTKNLFNKLEVLLGEKNWKSKTAQLLNISSDAFYKKIRNESQLNLHELLLIKDTFKISIDALLDE	-1.24
HMKDNIRSILEDIPNIGPGRRRALLKHFGSIEAIRRASLEDLIKVDGMNRNAALSIMEYFGM	-0.159
HMKPTVKKLLAALPELRSGQPLHLSVATRKLRDAGLLGKNASSPTLFRNYVAQFELIPENQPNAVRYR	-0.551
HMAQTSAELIIEYLKRNDGFMELTDKSPADEIYETFGISKKNFKMAVGSLYKNRVIEIGQNGIRLVE	-0.216
HMAVLGIQPVFHRSTGQTVYKSSVNTAKGRVYLGLFPTLTEALEIKLKYMQEHGHTKGITNLTNKLKEL	-1.17
HMFTEIMAERNALIQAIQQNLPPQHIQSILSKKNKFRLEDLTNEELRDVWQWILNQRQAQQHQQQ	-0.171
HMSLSKEEFETISKQVLELAGAGPIPVKELLQKMERTSKEKAWKVIEFLQAEDKIVPDATGRIQL	-0.068
HMRADYVGGLDPAGDNFLALRTGPGSGYAMILPMGPGTFVTVLRRNGKWLLVELEDGTRGWAYGSYILG	-2.84
HMQNKFLDIVGEIEVKAVDYYLLKDTSGLVIKFPKNLVFANGLKIADNKIGLTVSLYGAWVHEET	-1.17
HMAIRLIKASREFNVGISTIVEFLEKKGHAIDSDPNSKIPDELYQLIEKEFQTEGSVKKAAKQI	-0.0914
HMVSLSENQKIVLESLNTAMSARELMEILNLSDISHFRRNILNPLLLEGLIVRTKPDKPKSSKQKYIKANF	-1.15
HMSDKPIFIDTAGIAALSAIGFSKYQATIIFNYIKKGGAIYTVKDLAKIYSIDQKTIDLTQSKIIFS	-0.0111
HMEMNPLDIQNKAAELAQQWLQLPVGERQKQMAAVRTSNPNLHAMAKQKMEEMRSQAESQGRQSLSQP	0.0359
HMSEEELETSGLVKRSAKGNLYDIFRHRVMVPIIDVRGAIIAFGGRVLDDSKPKYINSPETMVY	0.0208
HMKQLRVLGIVKAGSILKNSDGSIEFVIEDSGKSLLVKYKGVIPDIFKDGVEAVVEGDLRGSVFNADKLF	-0.75
HMFGGIEFGWSQLPDGRVEYIIQLDDQAIAALKNGRSLTSSLPPEVQNADRIRIQYGAGPVEKGLLLQ	0.0674
HMSRYQDIANDIEKDIIEKKYTRKLPEQFELAQKYQTSRVTIVHALKILQNKKLIRTVKGHGTFITS	-1.4
HMEKALEVKYQKMVELLGDQSTFYVDEVKKIFPEMKKSSLYWNMSKLVEGGYLRRIRNGVYAFNE	-0.48
HMKYGPSTVATLKVARLGEMGAFLDAETGDTSDDILLHKTQQTAPVKVGDEVEVFLYLDPKRRLTASMRV	-0.107
HMEDPVAQEARAAFEVGRLLAAATGPVTLAAIRRAIDLPEERLEEILRRLEESGAVRRARDGWLPG	0.0888
HMAKNSVLTIELWNSTAFKWRKDTEPYSESMSVDFNRSVRLTDGISIMFSKFGFVPGIQYLIPLQT	-0.0652

Sequence	soluble fraction (log2)
HMTMRFVVADGQNFGSIAQSKALEAVKKGNTEFNYKDVDYTVDIQSDDFYVVYQGRDIMGYASR	-2
HMLTTMSSQWKPSLDAIEILEKSGIAYSFIEDAIPEFVLYWRERGISHGAWNTKFVEHIRKQWAKFEAS	-1.35
HMVAEKSKIEMAIDSINKLAKELADSGVAKKTISDIIKSVSGSANYNKITDFEVATDVYKELVALKNKEDT	0.384
HMKQLLHLVIGGELKDVRGIEFEDLSKIDFVGAFPSYKAAYDAWKNAAQRTVDNAEMRYFILHAHR	-1.79
HMRKDEFLQTLRRALNGNVPPRVVEENVRYYDGYISDEVRKGRSEEEVIEEIGDPRLIARTIEDTT	0.0826
HMESSSQLGFELARLVESGNDEEARALVQAKELSEADERKWLYHLGNLLHAAGRPLQASAIWREVGT	0.0628
HMPSNVKIPDVTGKTVAQARSAIEAAGLKVGKEKDEYSDSAKKDSVIRTNPQAGTQRREGSTVDLIVS	0.122
HMGVRPAALGFQKVRIEPQVGTFREASGDVITPRGLIHAEWKRDEENALHLHYTLPDGVAYA	-0.0327
HMGFAEFWLAYPKKVGKGEAERKWKTLKPDAGAVLSAVKRQSASEQWRKDGGRYIPNPATWLHQRRWE	-0.0238
HMRNANENTLKDLPVAVPNIHVSNIEEKKDFHLIQLEYSQEFDPREDLFNFAVNSSWVILKMTPT	0.422
HMEISNWLEEIGLSRYTETLSEFPLEDLVEFTDDDFKELGVLTPHRKKLLAAIATLNNDASSN	-0.255
HMTVPTEVALELMHATALEDNEQRILYIASFKEKHREHLHATIEVDGQEVTLARYADLVATGAYL	-0.505
HMRDIGKNIRYYREKKGYSQEQLAQLLFVTRQTVSNYETSRSRPDVETLVKLAGLLDIDVTDLIYGPR	-0.651
HMPTFAEKLHEVRKARDFTQDQLAKEMNVSRQTISHWENGRAVPDIDTIKHLSQVLDYNFLV	0.124
HMKGLDRATNKALLLKHIIDNGSTGTRFSELRQVLPSLTRGSISSLLIELRSEGKIHSIGVTRNARWYPTE	-1.07
HMDNVLGKSGKVIFVNEEINSYGRAFIPGHGEWNIRTKSDQNIHINDGIKVIERDGITLVVEL	-1.14
HMQTTKTGTITASSLYVRSGASTSHKVLGTVSKGKTVQIKDTQDGWHKISYNGDHGWVSGKYVSTT	≥ 0.62
HMKSLHSEVTDRIRQLIVESHLQPGQRVPELEISRDLGVSRTPIREALKVLAAEGLVELLPLRGAMVK	0.0612
HMTGMDALIGRRVFVSEEILPGDAGGRVAVDGDSWRAISVGTAKPIPAGTEVRIHGYKSLILEVEPI	-0.162
HMDLQHQLTPRLKRLRLSGILETLEVRNQQAIAEKWSYVEFLTRLAEDEVERRDHKQLTLRLR	-0.499
HMSIYMNIYNEFKKYIIANVYKYDDKLPSVRSIALEYGINPNTVQRAFQLLEDEGYIKTISKKGVYVNYR	-0.781
HMKIDELKAYLFQSVRVKNPHTQEYDTLKIIELNYYQDKIKAKLKNSDDDYITEMIFESIKHLQNFLG	-0.298
HMVSVGDIFAGRIISNENGHLLLQLLDGSKISAQTVTDLKYNIGDVLNLEIIEEKQGLIFVRQT	-0.516
HMKDKSEKTKKLIFEAAFKIIREEGFSELSANKIAQVASVSKGVIFHHFSQMDDLYLFMLDTL	0.255
HMNKTVKIPNVSNLSREDAESVLKENGISVNSEVKQIESDTIEKGKVVKTDPSIGTSVKKGRSITIYVSSG	0.0637
HMIDRPLTLVEDYERFAGELAKITLRFMLDGRKRFNGRLAGFDEDGKIVLETSFGRFAFSFDEIDSARI	-2.68
HMHFEWNELRKAINDFLAEQNMNEDKQLGPYFIQRDIVVPETGTEIDSKKFSEVFKHKVIMYLFDDAAKQ	-0.0513
